Reference: patent publication US20070265206A1 (PALATIN TECHNOLOGIES, published 2007)
Bridge positions count the residues as written; N and C are the ends.

How the values were obtained:
[1] = biological target: T1, human natriuretic peptide receptor A (NPRA) (human, UniProt P16066 33-1061); experiment: competitive inhibition of [125I]-ANP binding to HEK-hNPRA membrane homogenates
T1 construct: whole, on cells; In the cGMP assay it stood on whole HEK-hNPRA cells; also called hNPRA; hNPR-A
T1 sequence (looked up): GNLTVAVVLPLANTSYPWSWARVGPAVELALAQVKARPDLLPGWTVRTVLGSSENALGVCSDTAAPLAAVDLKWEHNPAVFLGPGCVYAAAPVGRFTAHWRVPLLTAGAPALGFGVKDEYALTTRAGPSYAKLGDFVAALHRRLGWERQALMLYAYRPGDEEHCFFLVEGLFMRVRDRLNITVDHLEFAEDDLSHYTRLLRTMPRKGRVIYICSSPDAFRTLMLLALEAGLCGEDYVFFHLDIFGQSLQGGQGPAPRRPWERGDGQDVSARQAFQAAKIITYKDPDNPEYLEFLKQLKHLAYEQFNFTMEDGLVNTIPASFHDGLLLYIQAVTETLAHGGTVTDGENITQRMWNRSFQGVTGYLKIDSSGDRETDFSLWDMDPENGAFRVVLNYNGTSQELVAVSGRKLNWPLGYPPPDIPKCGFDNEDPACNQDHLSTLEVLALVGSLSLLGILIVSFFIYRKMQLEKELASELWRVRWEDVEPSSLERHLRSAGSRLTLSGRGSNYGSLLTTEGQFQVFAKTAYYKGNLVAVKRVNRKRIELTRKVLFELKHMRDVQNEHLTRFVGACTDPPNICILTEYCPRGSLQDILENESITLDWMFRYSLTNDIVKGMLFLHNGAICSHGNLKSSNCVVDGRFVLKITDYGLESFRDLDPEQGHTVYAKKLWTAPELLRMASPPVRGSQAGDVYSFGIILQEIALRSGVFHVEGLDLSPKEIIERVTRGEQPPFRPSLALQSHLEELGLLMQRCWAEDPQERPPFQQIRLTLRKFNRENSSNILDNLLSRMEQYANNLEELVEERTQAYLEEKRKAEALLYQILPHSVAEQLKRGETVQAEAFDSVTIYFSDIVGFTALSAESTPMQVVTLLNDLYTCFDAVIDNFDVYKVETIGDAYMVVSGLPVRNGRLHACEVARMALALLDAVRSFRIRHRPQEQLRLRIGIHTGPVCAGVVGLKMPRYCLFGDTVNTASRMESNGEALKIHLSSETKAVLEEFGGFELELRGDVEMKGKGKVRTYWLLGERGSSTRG
Method: Competitive binding assay. A competitive inhibition binding assay was performed using crude membrane homogenates prepared from HEK-hNPRA cells. To prepare membrane homogenates, cells were rinsed with phosphate-buffered saline and incubated for 15 minutes at 4° C. in hypotonic lysis buffer (10 mM Tris, pH 7.4+5 mM EDTA). Cells were transferred from plates to polypropylene tubes and homogenized. Homogenates were centrifuged at 25,000×g for 20 minutes. Pellets were resuspended in buffer consisting of 50 mM Tris (pH 7.4) and 1 mM EDTA, homogenized and centrifuged at 25,000×g for 20 minutes. […] On the day of an assay, homogenates were thawed and homogenized. […] Assays were stopped by addition of cold wash buffer (phosphate-buffered saline) followed by filtration using a vacuum manifold. Bound radioactivity was determined using a gamma counter. […] Data were analyzed using GraphPad Prism® curve-fitting software.

[2] = biological target: T1, human natriuretic peptide receptor A …; experiment: cell-based or functional assay

B1: mini-ANP, H-Met-cyclo(Cys-His-Phe-Gly-Gly-Arg-Met-Asp-Arg-Ile-Ser-Cys)-Tyr-Arg-NH2 (peptide)
peptide: H-MCHFGGRMDRISCYR-NH2
modifications: disulfide 2-13
SMILES: CC[C@H](C)[C@@H]1NC(=O)[C@H](CCCNC(=N)N)NC(=O)[C@H](CC(=O)O)NC(=O)[C@H](CCSC)NC(=O)[C@H](CCCNC(=N)N)NC(=O)CNC(=O)CNC(=O)[C@H](Cc2ccccc2)NC(=O)[C@H](Cc2c[nH]cn2)NC(=O)[C@@H](NC(=O)[C@@H](N)CCSC)CSSC[C@@H](C(=O)N[C@@H](Cc2ccc(O)cc2)C(=O)N[C@@H](CCCNC(=N)N)C(N)=O)NC(=O)[C@H](CO)NC1=O
notes: also called 15-mer disulfide cyclic peptide
Ki [1]: 0.6 nM
EC50 (accumulation of intracellular cGMP) [2]: 3.3 nM
